Data published in US20080050387A1, “Non-Androgen Dependent Roles for Androgen Receptor and Non-Androgen Related Inhibitors of Androgen Receptor” (priority 2003, published 2008).

Target: T1, AR nuclear translocation (Homo sapiens, UniProt P10275, DEL79-80/DUP473-473)
T1 construct: expressed in transfected cells; host or cells: COS-1
T1 sequence (P10275 with tags, fused parts or gaps DEL79-80/DUP473-473): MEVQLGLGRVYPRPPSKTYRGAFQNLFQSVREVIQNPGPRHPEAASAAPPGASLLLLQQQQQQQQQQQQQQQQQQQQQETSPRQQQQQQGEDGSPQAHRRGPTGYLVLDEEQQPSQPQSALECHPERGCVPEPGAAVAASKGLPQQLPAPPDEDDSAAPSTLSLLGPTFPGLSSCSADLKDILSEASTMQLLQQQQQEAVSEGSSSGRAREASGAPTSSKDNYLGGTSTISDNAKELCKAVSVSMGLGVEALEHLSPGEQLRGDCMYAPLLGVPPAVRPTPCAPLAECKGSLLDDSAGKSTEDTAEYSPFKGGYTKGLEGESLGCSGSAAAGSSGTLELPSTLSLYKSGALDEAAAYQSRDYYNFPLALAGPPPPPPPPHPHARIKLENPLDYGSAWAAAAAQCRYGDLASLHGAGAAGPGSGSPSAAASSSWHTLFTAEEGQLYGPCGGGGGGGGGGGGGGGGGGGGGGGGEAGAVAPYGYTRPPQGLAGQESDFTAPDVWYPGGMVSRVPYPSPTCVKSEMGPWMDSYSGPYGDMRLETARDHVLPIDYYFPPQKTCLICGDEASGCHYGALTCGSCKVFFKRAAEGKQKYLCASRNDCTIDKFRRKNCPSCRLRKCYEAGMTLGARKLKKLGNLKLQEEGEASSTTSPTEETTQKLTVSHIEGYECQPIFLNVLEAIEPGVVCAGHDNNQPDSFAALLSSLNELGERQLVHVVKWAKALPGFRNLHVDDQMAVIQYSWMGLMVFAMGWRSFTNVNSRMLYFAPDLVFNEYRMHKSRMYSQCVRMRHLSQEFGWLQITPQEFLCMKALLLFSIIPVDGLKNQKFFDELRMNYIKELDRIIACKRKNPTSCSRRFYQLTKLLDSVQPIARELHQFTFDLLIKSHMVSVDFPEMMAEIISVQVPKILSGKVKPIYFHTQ
Test: Subcellular distribution of AR in COS-1 cells (immunofluorescence staining, subcellular fractionation)
Format: cell-based
Experimental: COS-1 cells were seeded on two-well Lab Tek Chamber slides (Nalge) in DMEM containing 10% CD-FBS 18 h before transfection. DNA was transfected by using FuGENE 6 Transfection Reagent (Boehringer Mannheim). After transfection, cells were treated with either 10 nM DHT or vehicle for 12 h. Then cells were fixed with fixation solution (3% paraformaldehyde and 10% sucrose in PBS) for 20 min on ice, followed by permeabilization with methanol for 10 min on ice. Slides were washed and blocked with 2% BSA in PBS for 15 min at room temperature. Then the cells were stained with 1 μg/ml rabbit polyclonal anti-AR antibody (NH27) and 1 μg/ml mouse monoclonal anti-His antibody (Santa Cruz Biotechnology) sequentially at room temperature for 1 h each. After each first Ab incubation, cells were washed and incubated with TexRed-conjugated goat anti-rabbit IgG and FITC-conjugated goat anti-mouse IgG (ICN), respectively. Stained slides were washed and mounted (Vectashield; Vector Laboratories). Fluorescence images were photographed under 400-fold magnification with a confocal microscope.
To prepare cytosolic and nuclear fractions of cells, cell monolayers were harvested with ice-cold PBS and pelleted. Cold buffer A (10 mM HEPES-KOH/pH 7.9 at 4° C., 1.5 mM MgCl2, 10 mM KCl, 0.5 mM dithiothreitol, 0.2 mM PMSF) equal to 5 times cell volume was used to resuspend the cells. […]

- AR level in nuclear fraction (Western blot, after DHT treatment): decreased
- nuclear translocation of AR (immunofluorescence staining, DHT treatment): block the nuclear translocation
B1: ARA67: AR N-terminal interacting protein of 585 amino acids (SEQ ID NO:1), matches PAT1; functions as a repressor of AR (protein)
chain: MAAVELEWIPETLYNTAISAVVDNYIRSRRDIRSLPENIQFDVYYKLYQQGRLCQLGSEFCELEVFAKVLRALDKRHLLHHCFQALMDHGVKVASVLAYSFSRRCSYIAESDAAVKEKAIQVGFVLGGFLSDAGWYSDAEKVFLSCLQLCTLHDEMLHWFRAVECCVRLLHVRNGNCKYHLGEETFKLAQTYMDKLSKHGQQANKAALYGELCALLFAKSHYDEAYKWCIEAMKEITAGLPVKVVVDVLRQASKACVVKREFKKAEQLIKHAVYLARDHFGSKHPKYSDTLLDYGFYLLNVDNICQSVAIYQAALDIRQSVFGGKNIHVATAHEDLAYSSYVHQYSSGKFDNALFHAERAIGIITHILPEDHLLLASSKRVKALILEEIAIDCHNKETEQRLLQEAHDLHLSSLQLAKKAFGEFNVQTAKHYGNLGRLYQSMRKFKEAEEMHIKAIQIKEQLLGQEDYEVALSVGHLASLYNYDMNQYENAEKLYLRSIAIGKKLFGEGYSGLEYDYRGLIKLYNSIGNYEKVFEYHNVLSNWNRLRDRQYSVTDALEDVSTSPQSTEEVVQSFLISQNVEGPSC
